Assay in all cases: ELISA
The target of test [1] is anti-AGR2 monoclonal antibody MAb-15 (VH-VL of scFv-15 in a full human IgG1 backbone). The note with it: chain shown with the change; point at 1000 pM mAb-15 (highest concentration); plate coated with the AGR2 mutant; parent: est. 2.8; read off a plot.
The target in test [2] is BSA, P02769. The following applies: chain shown with the change; plates coated with AGR2 or BSA (control); parent: 101.
Test [3] has as its target PDI (PDIA1), P07237. The note with it: chain shown with the change; plates coated with AGR2 or PDI (PDIA1); parent: 40.
Test [4] concerns the target T1, Thioredoxin (TXN), P10599.
T1 chain: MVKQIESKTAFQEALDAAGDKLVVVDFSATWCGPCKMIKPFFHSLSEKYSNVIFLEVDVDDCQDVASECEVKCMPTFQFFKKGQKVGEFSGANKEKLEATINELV
The following applies: chain shown with the change; plates coated with AGR2 or thioredoxin (TXN); parent: 30.

PDI (PDIA1), P07237, sequence (P07237 18-508): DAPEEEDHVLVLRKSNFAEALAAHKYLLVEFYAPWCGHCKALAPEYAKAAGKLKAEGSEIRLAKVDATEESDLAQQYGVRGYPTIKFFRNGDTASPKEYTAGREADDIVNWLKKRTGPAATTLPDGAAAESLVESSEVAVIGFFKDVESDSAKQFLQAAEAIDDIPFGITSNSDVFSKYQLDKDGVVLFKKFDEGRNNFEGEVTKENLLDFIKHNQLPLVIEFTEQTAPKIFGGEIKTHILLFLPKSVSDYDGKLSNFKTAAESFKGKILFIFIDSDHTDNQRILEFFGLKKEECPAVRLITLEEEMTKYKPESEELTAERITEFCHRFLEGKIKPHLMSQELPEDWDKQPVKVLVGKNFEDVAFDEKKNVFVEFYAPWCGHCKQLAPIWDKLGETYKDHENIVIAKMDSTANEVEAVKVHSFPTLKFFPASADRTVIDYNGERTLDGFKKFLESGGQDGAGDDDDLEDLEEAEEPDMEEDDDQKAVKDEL
BSA, P02769, sequence (P02769 25-607): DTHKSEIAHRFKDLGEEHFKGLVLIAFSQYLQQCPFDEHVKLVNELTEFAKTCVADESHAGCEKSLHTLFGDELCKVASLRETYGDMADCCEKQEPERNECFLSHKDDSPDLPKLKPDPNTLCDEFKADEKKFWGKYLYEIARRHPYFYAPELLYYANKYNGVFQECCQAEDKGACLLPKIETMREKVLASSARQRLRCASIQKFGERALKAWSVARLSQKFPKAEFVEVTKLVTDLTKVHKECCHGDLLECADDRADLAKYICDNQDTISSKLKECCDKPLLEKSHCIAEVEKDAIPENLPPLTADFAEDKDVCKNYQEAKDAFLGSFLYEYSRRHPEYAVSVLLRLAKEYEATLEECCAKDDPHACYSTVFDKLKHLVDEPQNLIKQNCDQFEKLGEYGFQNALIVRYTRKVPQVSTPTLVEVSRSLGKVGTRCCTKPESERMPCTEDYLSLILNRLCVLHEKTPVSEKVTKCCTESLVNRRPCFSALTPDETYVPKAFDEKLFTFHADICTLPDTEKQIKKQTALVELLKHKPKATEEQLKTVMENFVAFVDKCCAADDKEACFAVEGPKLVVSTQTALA

B1: Anterior Gradient-2 (AGR2/PDIA17), AGR2 (21-175), 6x-His tag removed, O95994 E60A (protein)
chain: RDTTVKPGAKKDTKDSRPKLPQTLSRGWGDQLIWTQTYEAALYKSKTSNKPLMIIHHLDECPHSQALKKVFAENKEIQKLAEQFVLLNLVYETTDKHLSPDGQYVPRIMFVDPSLTVRADITGRYSNRLYAYEPADTALLLDNMKKALKLLKTEL
For the molecule B1, the response in test [1] worked out at 2.3 OD450.

B2: Anterior Gradient-2 (AGR2/PDIA17), AGR2 (21-175), 6x-His tag removed, O95994 S84A (protein)
chain: RDTTVKPGAKKDTKDSRPKLPQTLSRGWGDQLIWTQTYEEALYKSKTSNKPLMIIHHLDECPHAQALKKVFAENKEIQKLAEQFVLLNLVYETTDKHLSPDGQYVPRIMFVDPSLTVRADITGRYSNRLYAYEPADTALLLDNMKKALKLLKTEL
As for B2, in test [1], the response amounted to 2.7 OD450.

B3: Anterior Gradient-2 (AGR2/PDIA17), AGR2 (21-175), 6x-His tag removed, O95994 C81A (protein)
chain: RDTTVKPGAKKDTKDSRPKLPQTLSRGWGDQLIWTQTYEEALYKSKTSNKPLMIIHHLDEAPHSQALKKVFAENKEIQKLAEQFVLLNLVYETTDKHLSPDGQYVPRIMFVDPSLTVRADITGRYSNRLYAYEPADTALLLDNMKKALKLLKTEL
Take B3: in test [1], the response was determined as 2.8 OD450.

B4: Anterior Gradient-2 (AGR2/PDIA17), AGR2 (21-175), 6x-His tag removed, O95994 C81A; S84A (protein)
chain: RDTTVKPGAKKDTKDSRPKLPQTLSRGWGDQLIWTQTYEEALYKSKTSNKPLMIIHHLDEAPHAQALKKVFAENKEIQKLAEQFVLLNLVYETTDKHLSPDGQYVPRIMFVDPSLTVRADITGRYSNRLYAYEPADTALLLDNMKKALKLLKTEL
On to B4, for which, in test [1], the response was determined as 2.3 OD450.

B5: anti-AGR2 monoclonal antibody MAb-15 (VH-VL of scFv-15 in a full human IgG1 backbone) S31R; A53Y (protein)
chain 1: EVQLLESGGGLVQPGGSLRLSCAASGFTFSRYAMSWVRQAPGKGLEWVSGISYQGAHTTYADSVKGRFTISRDNSKNTLYLQMNSLRAEDTAVYYCAKTYKGFDYWGQGTLVTVSS
chain 2: DIQMTQSPSSLSASVGDRVTITCRASQSISSYLNWYQQKPGKAPKLLIYSASRLQSGVPSRFSGSGSGTDFTLTISSLQPEDFATYYCQQGRRMPPTFGQGTKVEIK
As for B5, the other: AGR2 Specificity, BSA/AGR2 (EC50 relative to AGR2 binding) in test [2] came out at 751. Further, the other: AGR2 Specificity, PDI/AGR2 (EC50 relative to AGR2 binding) in test [3] came out at 451. Further, in test [4], the other: AGR2 Specificity, TXN/AGR2 (EC50 relative to AGR2 binding) stood at 266.

The values above are taken from paper PMC11672854.
